This experiment has as its target T1, HA-tagged KDM5C, full length (UniProt P41229 1-1560).
T1 construct: KDM5C (JARID1C, SMCX), histone demethylase; the truncations run to residue 1560; KDM5C was sub-cloned into pCDH-3×Flag-3×HA-EF1-puro and into pLV-EF1-puro(cs2.0)-N-3×HA; also called HA-KDM5C; KDM5C FL; source: HEK293T, transfected, in lysate, nuclear extract or cytosolic extract; HEK293T, purified on anti-HA agarose
Kind of experiment: co-IP; cytosolic extracts from transfected HEK293T cells; IP with anti-HA antibody; immunoblotting. The note with it: partners not purified.

This is an account of results in article PMC8097366, “The Dual Function of KDM5C in Both Gene Transcriptional Activation and Repression Promotes Breast Cancer Cell Growth and Tumorigenesis” (Advanced Science, 2021).

T1 sequence (P41229 whole entry, the tested form may be a part): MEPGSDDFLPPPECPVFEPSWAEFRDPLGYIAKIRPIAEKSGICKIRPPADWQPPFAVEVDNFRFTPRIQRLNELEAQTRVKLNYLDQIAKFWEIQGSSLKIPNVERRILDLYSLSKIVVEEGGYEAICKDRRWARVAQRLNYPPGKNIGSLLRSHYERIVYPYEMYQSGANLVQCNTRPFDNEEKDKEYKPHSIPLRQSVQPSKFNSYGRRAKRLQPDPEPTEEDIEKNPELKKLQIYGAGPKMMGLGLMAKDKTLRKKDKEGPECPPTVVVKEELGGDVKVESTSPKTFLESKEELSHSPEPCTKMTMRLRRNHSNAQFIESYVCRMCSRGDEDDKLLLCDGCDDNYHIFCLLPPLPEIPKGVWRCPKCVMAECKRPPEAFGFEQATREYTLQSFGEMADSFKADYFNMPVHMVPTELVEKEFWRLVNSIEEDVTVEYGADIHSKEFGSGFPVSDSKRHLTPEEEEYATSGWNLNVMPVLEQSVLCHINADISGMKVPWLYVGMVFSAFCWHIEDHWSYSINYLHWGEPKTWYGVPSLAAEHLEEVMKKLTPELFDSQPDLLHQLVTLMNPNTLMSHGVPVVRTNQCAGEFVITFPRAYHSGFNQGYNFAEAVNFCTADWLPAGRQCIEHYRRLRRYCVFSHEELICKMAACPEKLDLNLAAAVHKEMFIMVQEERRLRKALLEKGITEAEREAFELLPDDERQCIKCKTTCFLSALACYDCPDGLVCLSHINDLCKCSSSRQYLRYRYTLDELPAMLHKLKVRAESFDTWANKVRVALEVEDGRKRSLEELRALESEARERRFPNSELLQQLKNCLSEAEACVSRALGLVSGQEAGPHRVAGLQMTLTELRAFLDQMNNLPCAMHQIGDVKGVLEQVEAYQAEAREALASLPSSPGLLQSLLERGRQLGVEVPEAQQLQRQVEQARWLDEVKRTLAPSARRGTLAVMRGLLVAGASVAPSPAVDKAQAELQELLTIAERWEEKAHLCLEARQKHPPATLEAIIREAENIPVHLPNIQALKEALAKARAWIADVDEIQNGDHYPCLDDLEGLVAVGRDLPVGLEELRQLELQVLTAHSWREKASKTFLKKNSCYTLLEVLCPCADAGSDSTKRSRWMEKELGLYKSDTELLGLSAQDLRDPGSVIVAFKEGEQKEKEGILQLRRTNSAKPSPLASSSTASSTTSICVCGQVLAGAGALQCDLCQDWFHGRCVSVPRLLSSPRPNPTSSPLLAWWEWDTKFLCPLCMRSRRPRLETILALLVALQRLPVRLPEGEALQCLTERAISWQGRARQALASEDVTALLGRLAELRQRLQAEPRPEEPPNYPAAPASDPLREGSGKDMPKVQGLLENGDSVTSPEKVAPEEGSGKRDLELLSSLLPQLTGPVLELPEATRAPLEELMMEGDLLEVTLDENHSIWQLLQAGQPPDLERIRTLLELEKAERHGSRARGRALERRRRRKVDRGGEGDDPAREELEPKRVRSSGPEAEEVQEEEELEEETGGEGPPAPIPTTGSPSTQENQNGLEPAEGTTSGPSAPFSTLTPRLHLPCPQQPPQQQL

B1: Flag-tagged TBK1 (pBOBI-3×Flag-hTBK1) (enzyme, human, UniProt Q9UHD2 1-729, looked up)
chain: MQSTSNHLWLLSDILGQGATANVFRGRHKKTGDLFAIKVFNNISFLRPVDVQMREFEVLKKLNHKNIVKLFAIEEETTTRHKVLIMEFCPCGSLYTVLEEPSNAYGLPESEFLIVLRDVVGGMNHLRENGIVHRDIKPGNIMRVIGEDGQSVYKLTDFGAARELEDDEQFVSLYGTEEYLHPDMYERAVLRKDHQKKYGATVDLWSIGVTFYHAATGSLPFRPFEGPRRNKEVMYKIITGKPSGAISGVQKAENGPIDWSGDMPVSCSLSRGLQVLLTPVLANILEADQEKCWGFDQFFAETSDILHRMVIHVFSLQQMTAHKIYIHSYNTATIFHELVYKQTKIISSNQELIYEGRRLVLEPGRLAQHFPKTTEENPIFVVSREPLNTIGLIYEKISLPKVHPRYDLDGDASMAKAITGVVCYACRIASTLLLYQELMRKGIRWLIELIKDDYNETVHKKTEVVITLDFCIRNIEKTVKVYEKLMKINLEAAELGEISDIHTKLLRLSSSQGTIETSLQDIDSRLSPGGSLADAWAHQEGTHPKDRNVEKLQVLLNCMTEIYYQFKKDKAERRLAYNEEQIHKFDKQKLYYHATKAMTHFTDECVKKYEAFLNKSEEWIRKMLHLRKQLLSLTNQCFDIEEEVSKYQEYTNELQETLPQKMFTASSGIKHTMTPIYPSSNTLVEMTLGMKKLKEEMEGVVKELAENNHILERFGSLTMDGGLRNVDCL
notes: TBK1, kinase; hTBK1 in the construct's name; The end of the tag and the species are read from the printed name of the construct; also called Flag-TBK1; source: HEK293T, transfected, in cytosolic extract; HEK293T, purified (eluted with 3×Flag peptide); not shown: 3×Flag, N-terminal, kept
Turning to B1, the binding result was “binds”.
